Consider twelve molecules from US20260042850A1 (LOCKBODY THERAPEUTICS, published 2026).

Usually Kd stands for the constant that tells how readily two partners part at equilibrium. Broadly, the koff is the first-order rate constant of dissociation. What is called kon is a measure of how fast the partners come together. In general, EC50 refers to the concentration needed to bring the measured effect to its halfway point.

B1: 07C10 (antibody, IgG4, V domains shown)
VH: QVQLVQSGAEVKKPGASVKVSCKASGYIFTAYSMHWVRQAPGQGLEWMGIIKPSNGSTNYAQKFQGRVTMTRDTSTSTVYMELSSLRSEDTAVYYCARAEITTEFDYWGQGTLVTVSS
VL: EIVLTQSPGTLSLSPGERATLSCRASQSVESYAQSYLHWYQQKPGQAPRLLIYRGSTRESGIPDRFSGSGSGTDFTLTISRLEPEDFAVYYCQQSKEEPLTFGGGTKVEIK
B2: Grafted clone (Graft), IGHV1-46/IGKV3-20 CDR graft of 224G11 (antibody, human IgG4, V domains shown)
VH: B1 VH with S33T, I50W, S54N, S57L, T58A, A99S
VL: B1 VL with E30D, Q34N, Y36F, G55A, E98D
notes: also called VH graft/VL graft
B3: MH11 (antibody, IgG4, V domains shown)
VH: B1 VH with I28T, A31S, S33A, I50W, K52N, N55G, N59S, A99Q
VL: B1 VL with E30S, S60T, K96G, E97S, E98S
B4: MH6 (antibody, IgG4, V domains shown)
VH: B1 VH with I28T, A31S, S33T, I50W, K52N, N55G, N59S, A99Q
VL: B1 VL with E30S, S60T, S95Y, K96G, E97S, E98S
B5: MH12 (antibody, IgG4, V domains shown)
VH: B1 VH with I28T, A31S, S33A, I50W, K52N, N55G, N59S, A99Q
VL: B1 VL with E30S, S60T, S95Y, K96G, E97S, E98S
B6: 08B12 (antibody, IgG4, V domains shown)
VH: B1 VH with I50W, S54N, A99T
VL: B1 VL with E30D, Q34N, S60T, E97S, E98D
B7: MH5 (antibody, IgG4, V domains shown)
VH: B1 VH with I28T, A31S, S33T, I50W, K52N, N55G, N59S, A99Q
VL: B1 VL with E30S, S60T, K96G, E97S, E98S
B8: 09B08 (antibody, IgG4, V domains shown)
VH: B1 VH with I28T, A31S, S33T, I50W, K52N, S54N, A99S, E104D
VL: B1 VL with E30S, Q34N, E97S, E98D
B9: MH2 (antibody, IgG4, V domains shown)
VH: B1 VH with I28T, A31S, S33T, I50W, K52N, S54N, N55G, N59S, A99Q
VL: B1 VL with E30S, S60T, K96G, E97S, E98S
B10: MH1 (antibody, IgG4, V domains shown)
VH: B1 VH with I28T, A31S, S33T, I50W, K52N, S54N, N55G, N59S, A99Q
VL: B1 VL with E30S, Q34N, E97S
B11: MH7-1 (antibody, human IgG4, V domains shown)
VH: B1 VH with I28T, A31S, S33T, K52N, N55G, N59S, A99Q
VL: B1 VL with E30S, Q34N, S60T, E97S
B12: MH3 (antibody, IgG4, V domains shown)
VH: B1 VH with I28T, A31S, S33T, I50W, K52N, S54N, N55G, N59S, A99Q
VL: B1 VL with E30S, S60T, S95Y, K96G, E97S, E98S
notes: also called MH03

Residue numbers refer to the chain shown, from its start.

T3 sequence (A0M8R7 25-932 S170N/I621T): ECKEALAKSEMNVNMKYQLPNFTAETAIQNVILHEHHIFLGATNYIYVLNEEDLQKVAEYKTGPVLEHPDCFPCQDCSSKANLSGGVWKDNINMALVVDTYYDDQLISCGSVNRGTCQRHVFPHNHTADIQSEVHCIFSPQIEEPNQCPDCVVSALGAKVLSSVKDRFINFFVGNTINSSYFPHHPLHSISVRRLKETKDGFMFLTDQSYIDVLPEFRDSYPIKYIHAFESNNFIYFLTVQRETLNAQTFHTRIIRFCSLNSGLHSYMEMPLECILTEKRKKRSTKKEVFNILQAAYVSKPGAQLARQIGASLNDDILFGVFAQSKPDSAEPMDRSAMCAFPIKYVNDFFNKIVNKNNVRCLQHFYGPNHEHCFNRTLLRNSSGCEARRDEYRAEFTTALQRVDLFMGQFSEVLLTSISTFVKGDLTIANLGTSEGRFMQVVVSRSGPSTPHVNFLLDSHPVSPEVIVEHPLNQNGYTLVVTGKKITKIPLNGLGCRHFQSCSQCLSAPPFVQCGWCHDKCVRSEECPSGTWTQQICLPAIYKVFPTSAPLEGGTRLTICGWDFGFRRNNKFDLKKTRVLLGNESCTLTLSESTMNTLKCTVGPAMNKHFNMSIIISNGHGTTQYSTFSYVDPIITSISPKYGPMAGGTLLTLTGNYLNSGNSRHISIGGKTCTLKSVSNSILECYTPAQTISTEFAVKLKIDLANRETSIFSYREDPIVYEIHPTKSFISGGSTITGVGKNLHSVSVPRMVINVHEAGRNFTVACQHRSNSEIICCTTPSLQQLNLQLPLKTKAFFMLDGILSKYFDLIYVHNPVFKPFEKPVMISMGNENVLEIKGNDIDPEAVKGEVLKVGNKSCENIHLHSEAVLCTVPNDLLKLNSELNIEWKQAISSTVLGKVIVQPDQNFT

The target in the first experiment is T1, human C-MET on stably transfected CHO-K1 cells (human, UniProt P08581 25-1390).
T1 construct: also called hucMET; human C-MET+ CHO-K1 cells
T1 sequence (P08581 25-1390 limits assumed): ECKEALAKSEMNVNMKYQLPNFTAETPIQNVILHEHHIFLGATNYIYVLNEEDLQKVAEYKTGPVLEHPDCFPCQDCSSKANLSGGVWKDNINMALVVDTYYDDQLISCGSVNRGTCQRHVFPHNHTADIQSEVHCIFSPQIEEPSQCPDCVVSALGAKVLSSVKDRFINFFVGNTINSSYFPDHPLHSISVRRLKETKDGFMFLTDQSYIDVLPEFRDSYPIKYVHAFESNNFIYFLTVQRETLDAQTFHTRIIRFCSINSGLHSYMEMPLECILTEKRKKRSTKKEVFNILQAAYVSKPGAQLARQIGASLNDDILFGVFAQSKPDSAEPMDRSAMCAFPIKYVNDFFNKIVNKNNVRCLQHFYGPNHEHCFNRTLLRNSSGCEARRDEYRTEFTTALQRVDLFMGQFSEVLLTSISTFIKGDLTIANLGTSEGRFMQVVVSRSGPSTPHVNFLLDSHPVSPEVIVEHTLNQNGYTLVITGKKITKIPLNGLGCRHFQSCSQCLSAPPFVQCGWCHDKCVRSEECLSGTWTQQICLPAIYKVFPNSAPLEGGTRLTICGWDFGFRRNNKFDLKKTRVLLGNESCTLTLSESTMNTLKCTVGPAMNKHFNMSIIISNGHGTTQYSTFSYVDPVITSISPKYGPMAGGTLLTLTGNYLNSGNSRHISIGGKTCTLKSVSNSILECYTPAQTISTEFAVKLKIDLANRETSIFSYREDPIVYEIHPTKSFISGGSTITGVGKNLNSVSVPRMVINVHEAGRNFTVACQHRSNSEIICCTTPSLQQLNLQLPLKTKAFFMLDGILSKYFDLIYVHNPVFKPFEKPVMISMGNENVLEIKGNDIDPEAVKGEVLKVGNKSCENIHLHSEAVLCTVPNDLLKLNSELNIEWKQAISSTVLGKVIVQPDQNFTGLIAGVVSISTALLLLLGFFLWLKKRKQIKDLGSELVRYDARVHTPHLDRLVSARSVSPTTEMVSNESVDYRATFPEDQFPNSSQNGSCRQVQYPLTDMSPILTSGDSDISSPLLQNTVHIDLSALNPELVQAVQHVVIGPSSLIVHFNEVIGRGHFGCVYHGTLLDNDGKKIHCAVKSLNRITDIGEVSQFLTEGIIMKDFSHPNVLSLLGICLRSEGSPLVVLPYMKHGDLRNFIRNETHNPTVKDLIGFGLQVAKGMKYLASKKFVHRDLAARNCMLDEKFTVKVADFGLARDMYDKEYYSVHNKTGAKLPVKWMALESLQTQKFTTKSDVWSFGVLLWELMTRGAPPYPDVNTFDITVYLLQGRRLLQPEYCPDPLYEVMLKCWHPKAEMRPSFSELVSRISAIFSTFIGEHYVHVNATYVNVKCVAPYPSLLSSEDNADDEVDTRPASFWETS
Description: flow cytometry, C-MET CHO-K1 cells. The protocol:
(§1) Purified IgGs were tested in FACs for binding to human and cyno C-MET expressed on CHO-K1 stable cell lines and CHO-K1 wild-type cells. The IgG samples were titrated in three-fold serial dilutions starting at 500 nM to 0.08 nM. Binding of IgGs was detected with a mouse anti-human IgG conjugated to FITC. Results were analyzed by examining the Mean Fluorescence Intensity (MFI) of 10000 cells per sample in the BL-1 channel detector of a flow cytometer (Attune™ NxT Acoustic Focusing Cytometer, Invitrogen/ThermoFisher Scientific).
(§2) Antibodies to C-MET were analysed for concentration-dependent binding at the cell surface via flow cytometry. CHO-K1 cells were stably transfected with either human or cyno C-MET full-length cDNAs. Anti-C-MET IgGs and an isotype control IgG4(S228P) were then all tested in IgG4(S228P) format, over a concentration range of 500-0.08 nM for binding to human (FIG. 5A) and cyno (FIG. 5B) CHO-K1 cells.
Background: In flow cytometry, cells or beads pass a laser one at a time.
For B1, the “maximum MFI, fold over Isotype IgG4 background” value (shortened to “maximum MFI, fold”) was more than 10 fold.

In the case of B2, the “maximum MFI, fold” value is more than 10 fold.

In the case of B3, the “maximum MFI, fold” value is more than 10 fold.

In the case of B4, the “maximum MFI, fold” value is more than 10 fold.

Regarding B5, the “maximum MFI, fold” value is more than 10 fold.

Consider B6, for which the “maximum MFI, fold” value was more than 10 fold.

As to B7, the “maximum MFI, fold” value was more than 10 fold.

With B8, the “maximum MFI, fold” value is more than 10 fold.

B9: the “maximum MFI, fold” value is more than 10 fold.

As to B10, the “maximum MFI, fold” value is more than 10 fold.

For B11, the “maximum MFI, fold” value was more than 10 fold.

Consider B12, for which the “maximum MFI, fold” value was more than 10 fold.

The next experiment deals with T2, cynomolgus monkey C-MET on stably transfected CHO-K1 cells (cynomolgus monkey, UniProt A0M8R7 25-1381 (Papio anubis entry)).
T2 construct: also called cycMET; cyno C-MET+ CHO-K1 cells
T2 sequence (A0M8R7 25-1381 S170N/I621T limits assumed): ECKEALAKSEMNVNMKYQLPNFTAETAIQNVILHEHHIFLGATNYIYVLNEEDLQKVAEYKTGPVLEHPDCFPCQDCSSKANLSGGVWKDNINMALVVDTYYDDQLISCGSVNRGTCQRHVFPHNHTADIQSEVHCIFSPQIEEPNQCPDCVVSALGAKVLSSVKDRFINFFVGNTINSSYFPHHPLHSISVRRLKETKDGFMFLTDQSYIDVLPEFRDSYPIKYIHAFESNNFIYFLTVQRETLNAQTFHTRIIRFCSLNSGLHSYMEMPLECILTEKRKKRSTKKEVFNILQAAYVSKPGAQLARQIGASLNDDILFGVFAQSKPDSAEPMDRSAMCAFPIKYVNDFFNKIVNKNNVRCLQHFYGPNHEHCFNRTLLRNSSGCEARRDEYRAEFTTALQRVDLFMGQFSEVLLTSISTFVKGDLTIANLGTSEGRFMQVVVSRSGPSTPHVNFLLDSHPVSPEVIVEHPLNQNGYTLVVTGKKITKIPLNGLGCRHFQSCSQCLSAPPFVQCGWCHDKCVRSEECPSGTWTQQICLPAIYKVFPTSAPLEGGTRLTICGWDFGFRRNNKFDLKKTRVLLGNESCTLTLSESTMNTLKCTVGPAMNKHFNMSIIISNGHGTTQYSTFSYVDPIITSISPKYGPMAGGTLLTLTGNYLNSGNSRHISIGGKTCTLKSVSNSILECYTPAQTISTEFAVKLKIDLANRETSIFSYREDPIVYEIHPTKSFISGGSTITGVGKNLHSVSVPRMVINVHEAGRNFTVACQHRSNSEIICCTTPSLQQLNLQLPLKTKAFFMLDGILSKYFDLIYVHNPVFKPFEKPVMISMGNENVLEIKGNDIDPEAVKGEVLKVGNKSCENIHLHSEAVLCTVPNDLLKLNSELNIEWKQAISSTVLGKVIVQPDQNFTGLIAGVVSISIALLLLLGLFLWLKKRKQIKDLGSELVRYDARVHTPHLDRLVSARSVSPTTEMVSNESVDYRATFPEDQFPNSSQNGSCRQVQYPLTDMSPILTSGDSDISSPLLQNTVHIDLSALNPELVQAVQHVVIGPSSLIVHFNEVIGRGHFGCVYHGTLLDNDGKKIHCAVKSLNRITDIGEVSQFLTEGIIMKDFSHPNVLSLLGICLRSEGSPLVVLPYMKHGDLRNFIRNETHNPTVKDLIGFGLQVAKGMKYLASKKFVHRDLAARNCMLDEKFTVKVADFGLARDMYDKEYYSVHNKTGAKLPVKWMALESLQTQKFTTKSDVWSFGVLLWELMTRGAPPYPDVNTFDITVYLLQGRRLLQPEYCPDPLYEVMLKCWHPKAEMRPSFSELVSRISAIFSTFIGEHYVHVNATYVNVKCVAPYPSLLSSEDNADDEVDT
In words: flow cytometry, C-MET CHO-K1 cells. How it is done: as §1, §2
For the molecule B1, the “maximum MFI, fold” value was more than 10 fold.

For B2, the “maximum MFI, fold” value is more than 10 fold.

Regarding B3, the “maximum MFI, fold” value is more than 10 fold.

As for B4, the “maximum MFI, fold” value was more than 10 fold.

Take B5: the “maximum MFI, fold” value was more than 10 fold.

Turning to B6, the “maximum MFI, fold” value was more than 10 fold.

For B7, the “maximum MFI, fold” value was more than 10 fold.

For the molecule B8, the “maximum MFI, fold” value is more than 10 fold.

As for B9, the “maximum MFI, fold” value is more than 10 fold.

With B10, the “maximum MFI, fold” value was more than 10 fold.

Turning to B11, the “maximum MFI, fold” value is more than 10 fold.

Take B12: the “maximum MFI, fold” value was more than 10 fold.

Another experiment concerns the target T3, cynomolgus monkey C-MET His tag, monomeric (cynomolgus monkey, UniProt A0M8R7 25-932 (Papio anubis entry)).
T3 construct: also called monomeric cyno C-MET; cyCMET
In words: SPR Biacore, IgG captured, monomeric C-MET-His analyte. How it is done: (§3) Affinity (KD) of purified IgGs was determined via SPR with antigen in-solution on a Biacore® 3000 (GE). A mouse anti-human antibody (CH1 specific) was immobilized on a CM5 Sensor Chip to a level of 2000 RU in acetate buffer at pH 4.5 using amine coupling following the Wizard instructions for two channels. One channel was used for background signal correction. The standard running buffer HBS-EP pH 7.4 was used. Regeneration was performed with a single injection of 10 μl of 10 mM Glycine at pH 1.5 at 20 μl/minute. IgG samples were injected for 2 minutes at 50 nM at 30 μl/min followed by and off-rate of 60 seconds. The monomeric antigen (human C-MET His tagged or cynomolgus monkey C-MET His tag) was injected in two fold serial dilutions from 100 nM down to 6 nM, for 2 minutes at 30 μl/min followed by an off-rate of 300 seconds. The obtained sensorgrams were analysed using the Biacore® 3000 evaluation (BIAevaluation) software. The KD was calculated by simultaneous fitting of the association and dissociation phases to a 1:1 Langmuir binding model.
Background: In SPR one partner is held on a chip, and binding of the other changes the refractive index at the surface.
B1: the equilibrium dissociation constant (Kd) came out at 3.2 nM, the off-rate (koff) came out at 0.00021 s⁻¹ and the kon was found to be 65000 M⁻¹ s⁻¹.

B2 displayed a Kd of 0.22 nM, a koff of 5.2e-05 s⁻¹ and a kon of 230000 M⁻¹ s⁻¹.

In turn, B3 returned a Kd of 1.2 nM, a koff of 0.00018 s⁻¹ and a kon of 150000 M⁻¹ s⁻¹.

Molecule B4 registered a Kd of 4 nM, a koff of 0.00063 s⁻¹ and a kon of 160000 M⁻¹ s⁻¹.

Molecule B5 had a Kd of 4 nM, a koff of 0.00043 s⁻¹ and a kon of 110000 M⁻¹ s⁻¹.

B6 yielded a Kd of 8.1 nM, a koff of 0.00043 s⁻¹ and a kon of 54000 M⁻¹ s⁻¹.

The molecule B7 registered a Kd of 1.3 nM, a koff of 0.00021 s⁻¹ and a kon of 170000 M⁻¹ s⁻¹.

Molecule B8 showed a Kd of 0.2 nM, an off-rate (koff) of 1.2e-05 s⁻¹ and a kon of 60000 M⁻¹ s⁻¹.

B9 gave a Kd of 0.87 nM, a koff of 0.00021 s⁻¹ and a kon of 240000 M⁻¹ s⁻¹.

On to B10, for which binding was characterised by a dissociation constant (Kd) of 0.14 nM, the dissociation rate constant (koff) amounted to 2.6e-05 s⁻¹ and the kon was 180000 M⁻¹ s⁻¹.

Consider B11, for which binding was characterised by a dissociation constant (Kd) of 1.1 nM, the off-rate constant (koff) amounted to 0.000198 s⁻¹ and the association rate constant (kon) stood at 181000 M⁻¹ s⁻¹.

The molecule B12 displayed a Kd of 4.1 nM, a koff of 0.00062 s⁻¹ and an on-rate (kon) of 150000 M⁻¹ s⁻¹.

For a further experiment, the target named is T4, human C-MET His tagged, monomeric (human, UniProt P08581 25-932).
T4 construct: also called monomeric human C-MET; biotinylated human C-MET-His
T4 sequence (P08581 25-932): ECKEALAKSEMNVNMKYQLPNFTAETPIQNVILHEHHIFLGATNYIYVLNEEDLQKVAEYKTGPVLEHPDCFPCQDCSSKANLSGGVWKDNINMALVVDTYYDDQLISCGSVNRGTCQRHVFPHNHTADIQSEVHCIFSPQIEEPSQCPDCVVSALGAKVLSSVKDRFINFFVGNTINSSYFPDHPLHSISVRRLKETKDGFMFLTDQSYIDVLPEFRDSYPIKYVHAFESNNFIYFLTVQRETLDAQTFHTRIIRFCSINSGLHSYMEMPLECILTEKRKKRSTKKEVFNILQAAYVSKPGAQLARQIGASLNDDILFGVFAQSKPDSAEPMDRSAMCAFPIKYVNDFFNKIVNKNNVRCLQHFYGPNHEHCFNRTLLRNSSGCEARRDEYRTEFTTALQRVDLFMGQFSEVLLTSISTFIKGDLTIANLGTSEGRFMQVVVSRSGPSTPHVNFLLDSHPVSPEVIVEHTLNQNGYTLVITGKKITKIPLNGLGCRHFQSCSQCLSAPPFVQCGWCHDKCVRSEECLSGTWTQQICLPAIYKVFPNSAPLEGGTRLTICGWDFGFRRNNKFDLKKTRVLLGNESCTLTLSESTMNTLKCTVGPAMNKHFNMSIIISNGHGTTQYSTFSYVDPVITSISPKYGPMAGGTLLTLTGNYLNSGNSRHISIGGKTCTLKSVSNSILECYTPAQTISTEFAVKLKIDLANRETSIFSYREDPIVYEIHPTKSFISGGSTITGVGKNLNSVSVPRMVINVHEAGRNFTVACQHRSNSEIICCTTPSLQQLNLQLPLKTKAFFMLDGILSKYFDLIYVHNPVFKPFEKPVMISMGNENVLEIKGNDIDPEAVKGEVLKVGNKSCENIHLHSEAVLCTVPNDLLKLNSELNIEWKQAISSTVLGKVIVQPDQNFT
The description is as above. How it is done:
as §3
B1: binding was characterised by a dissociation constant (Kd) of 0.78 nM, the koff amounted to 9.4e-05 s⁻¹ and the kon was 120000 M⁻¹ s⁻¹.

Molecule B2 registered a Kd of 0.37 nM, a koff of 3.7e-05 s⁻¹ and a kon of 99000 M⁻¹ s⁻¹.

Molecule B3 showed a dissociation constant Kd of 2.6 nM, an off-rate (koff) of 0.00016 s⁻¹ and an on-rate constant (kon) of 62000 M⁻¹ s⁻¹.

B4 showed a Kd of 8.2 nM, a koff of 0.00053 s⁻¹ and a kon of 65000 M⁻¹ s⁻¹.

Molecule B5 showed a Kd of 6.5 nM, a koff of 0.00037 s⁻¹ and an on-rate constant (kon) of 56000 M⁻¹ s⁻¹.

Regarding B6, the equilibrium dissociation constant (Kd) is 8.4 nM, the koff is 0.00031 s⁻¹ and the kon worked out at 37000 M⁻¹ s⁻¹.

In turn, B7 showed a dissociation constant Kd of 2 nM, a koff of 0.00015 s⁻¹ and a kon of 77000 M⁻¹ s⁻¹.

For B8, the Kd is 1.1 nM, the koff stood at 4.1e-05 s⁻¹ and the kon is 37000 M⁻¹ s⁻¹.

The molecule B9 yielded a Kd of 2.5 nM, a koff of 0.00018 s⁻¹ and a kon of 73000 M⁻¹ s⁻¹.

In turn, B10 displayed a Kd of 0.75 nM, a koff of 7.11e-05 s⁻¹ and a kon of 94700 M⁻¹ s⁻¹.

B11: binding was put at a Kd of 1.54 nM, the koff was found to be 0.000151 s⁻¹ and the kon stood at 97900 M⁻¹ s⁻¹.

Take B12: binding was characterised by a dissociation constant (Kd) of 7.6 nM, the koff turned out to be 0.00051 s⁻¹ and the kon was determined as 68000 M⁻¹ s⁻¹.

In a further experiment the target is T1, human C-MET on stably transfected …. In words: flow cytometry, C-MET CHO-K1 cells. The source holds these as a separate data set. The protocol: as §1
In turn, B1 had an EC50 of 9.59 nM.

Turning to B3, it took 1.68 nM to reach a half-maximal effect (EC50).

Regarding B4, the EC50 came to 1.33 nM.

Turning to B5, a half-maximal effect (EC50) was put at 1.25 nM.

As to B6, the EC50 turned out to be 11.7 nM.

The molecule B7 came in with a 50% effective concentration (EC50) of 1.76 nM.

Regarding B8, the midpoint of the response, the EC50, lay at 9.3 nM.

In turn, B9 yielded a half-maximal effective concentration (EC50) of 1.59 nM.

B10: the EC50 came out at 2.02 nM.

Turning to B12, the EC50 was found to be 1.66 nM.

The target of a further experiment is T2, cynomolgus monkey C-MET on stably …. Description: flow cytometry, C-MET CHO-K1 cells. This is another data set of the same source. How it is done:
as §1
As for B1, the EC50 stood at 2.82 nM.

B3 registered an EC50 of 0.69 nM.

On to B4, for which the concentration giving a half-maximal response (EC50) came out at 0.72 nM.

Molecule B5 had an EC50 of 0.51 nM.

B6 displayed an EC50 of 1.34 nM.

The molecule B7 yielded an EC50 of 0.3 nM.

B8 showed an EC50 of 3.78 nM.

As for B9, a half-maximal effect (EC50) was put at 0.34 nM.

On to B10, for which the response was half-maximal at 0.26 nM (EC50).

Molecule B12 came in with an EC50 of 0.27 nM.

In another experiment the target is T5, Insulin.
T5 construct: Coated surface of the polyreactivity (development risk) ELISA
T5 sequence (P01308 25-54, chain 1 of 2): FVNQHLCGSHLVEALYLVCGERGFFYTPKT
T5 sequence (P01308 90-110, chain 2 of 2): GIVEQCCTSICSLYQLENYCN
Description: polyreactivity ELISA on insulin. On the set-up: scale not given here.
With B11, the reactivity score stood at 1.
